Assay results as given in the RNAGym collection of RNA variant scans (doi:10.7554/elife.80360).

B1: HDV Ribozyme (parent)
chain: GGCCGGCAUGGUCCCAGCCUCCUCGCUGGCGCCGGCUGGGCAACAUUCCGAGGGGACCGUCCCCUCGGUAAUGGCGAAUGGGACCCA

Variants of: B1
Assay: self-cleavage, relative activity (ratio to wild type); higher = more cleavage; co-transcriptional

Variant | self-cleavage
C41G A77C | 0.222
G40C C75A | 0.0326
G40C C75G | 0.166
G40C G82A | 0.233
G40C G82C | 0.188
G40C G82U | 0.0978
C41G A71U | 0.554
C41G A71C | 0.0723
G40U C41U | 0.937
G40U A45U | 0.361
G40U A45G | 0.688
G40C G68A | 0.201
G40C G68U | 0.245
C41A G76U | 1.02
G40U U69C | 0.91
G40U U69A | 0.623
C41A C57A | 1.02
C41A C57G | 1.04
G40C A87U | 0.325
G40C A87C | 0.245
C41A U79C | 0.237
C41A U79G | 0.858
C41A C62U | 0.869
C41A C63A | 0.969

Variant | self-cleavage
C41A G50C | 0.877
C41A G50U | 0.886
C41A G50A | 0.957
G40A U46A | 0.437
C41G A87U | 0.788
G40C C61A | 0.256
G40A U79C | 0.41
G40A U79A | 0.513
G40A U79G | 0.755
G40C G81C | 0.115
G40C G81A | 0.0755
G40A C84G | 0.594
G40A C84U | 0.377
G40U G68C | 0.443
G40U G68U | 0.858
G40U G68A | 0.722
G40U G81A | 0.328
G40U A70U | 0.69
G40A G82A | 0.358
G40A G67C | 0.992
G40A G67A | 1.12
G40A G67U | 0.919
G40C G74U | 0.202
G40C U72A | 0.124

Variant | self-cleavage
G40C U72C | 0.174
G40U A42C | 0.671
C41G A78C | 0.0405
C41G A78U | 0.178
C41G A78G | 0.208
C41A G55U | 0.968
G40U G59C | 0.76
G40U G59A | 0.812
G40C A56U | 0.381
G40U A56C | 0.639
G40U G55C | 0.937
G40U G55A | 0.722
C41A G53A | 0.967
G40A G59U | 0.987
G40A G59C | 0.831
G40A A77U | 0.523
G40C U79G | 0.138
G40C U79A | 0.19
G40U C58G | 0.598
G40U A77G | 0.462
C41G C61G | 0.875
G40C U65A | 0.326
C41G C57U | 1.04
C41G C57A | 1.05

Variant | self-cleavage
G40A C41G | 0.937
G40A C41A | 0.893
G40C C66U | 0.249
G40A C86A | 1.2
G40U C44A | 0.107
G40U C44U | 0.143
C41A C86A | 0.815
G40C U69C | 0.158
G40C C64A | 0.138
G40C C64G | 0.242
G40A A43G | 0.623
G40C U47A | 0.0845
G40C U47G | 0.173
C41A G80A | 0.389
C41A G80U | 0.187
G40A G53A | 0.882
G40A G53C | 1.01
C41A U46C | 0.415
C41A U46A | 0.7
C41A U46G | 0.554
G40U C85A | 0.427
G40U C85U | 0.911
G40C C41A | 0.706
G40C C58A | 0.151

Variant | self-cleavage
G40C C58G | 0.264
G40C | 0.299
G40A | 0.962
G40U | 0.717
G40A C57G | 1.02
G40A C57U | 1.13
G40A U47G | 0.831
G40A U47A | 0.997
G40A U47C | 1.03
C41A A43U | 0.57
C41A A43C | 0.872
G40A C44U | 0.582
G40A C44G | 0.302
G40A C44A | 0.692
G40A C58A | 0.906
G40A C58U | 1.18
G40A U60C | 1.11
G40A U60A | 1
G40C C84G | 0.128
G40C C84U | 0.0852
G40A G73C | 0.544
G40A G73A | 0.669
G40A A51U | 0.844
G40C G54A | 0.398

Variant | self-cleavage
G40C G54U | 0.205
G40U U47C | 0.475
G40C C48G | 0.35
G40C C48A | 0.424
C41A C84U | 0.388
C41A C84G | 0.749
C41A C49A | 0.519
C41G A56G | 0.851
C41G A56U | 0.746
G40U G50C | 0.626
G40U G50A | 0.577
G40C A43C | 0.123
G40U A51G | 0.717
G40U A51C | 0.627
G40A C62U | 0.853
G40A C62A | 0.95
G40U G76A | 0.789
G40U G76U | 0.795
G40U G76C | 0.492
G40C G67A | 0.23
G40C G67C | 0.439
C41G C44G | 0.158
G40U G67C | 0.639
G40U G67U | 0.757

Variant | self-cleavage
G40A G80A | 0.427
G40A G80U | 0.217
G40A G80C | 0.161
C41A C64A | 0.794
C41A C64U | 0.831
G40U C66U | 0.753
G40U C66G | 0.582
G40U C66A | 0.702
G40U G82C | 0.157
G40U G82A | 0.256
G40U G82U | 0.171
G40U C57G | 0.712
G40U C57A | 0.719
G40C C63A | 0.475
C41A A56U | 0.89
G40A A87G | 0.959
G40C G80C | 0.0608
G40A A78U | 0.404
G40A A78G | 0.795
G40U C62A | 0.709
G40U C62U | 0.872
G40C G55C | 0.347
G40C G55A | 0.121
